Earlier results in PMC5709052.
Read-outs that look alike come from different tables or passages of the source.

Key:
[1] = target: CYP102A1 reductase domain (BMR) reductase domain (Priestia megaterium) (UniProt P14779); experiment: absorption spectroscopy titration
[2] = target: CYP102A1 reductase domain (BMR) reductase domain (Priestia megaterium) (UniProt P14779); experiment: absorption spectroscopy titration; remark: listed apart in the source
[3] = target: CYP102A1 reductase domain (BMR) reductase domain (Priestia megaterium) (UniProt P14779)
[4] = target: CYP102A1 reductase domain (BMR) reductase domain (Priestia megaterium) (UniProt P14779); remark: listed apart in the source

Chain of UniProt P14779 (P14779 473-1049): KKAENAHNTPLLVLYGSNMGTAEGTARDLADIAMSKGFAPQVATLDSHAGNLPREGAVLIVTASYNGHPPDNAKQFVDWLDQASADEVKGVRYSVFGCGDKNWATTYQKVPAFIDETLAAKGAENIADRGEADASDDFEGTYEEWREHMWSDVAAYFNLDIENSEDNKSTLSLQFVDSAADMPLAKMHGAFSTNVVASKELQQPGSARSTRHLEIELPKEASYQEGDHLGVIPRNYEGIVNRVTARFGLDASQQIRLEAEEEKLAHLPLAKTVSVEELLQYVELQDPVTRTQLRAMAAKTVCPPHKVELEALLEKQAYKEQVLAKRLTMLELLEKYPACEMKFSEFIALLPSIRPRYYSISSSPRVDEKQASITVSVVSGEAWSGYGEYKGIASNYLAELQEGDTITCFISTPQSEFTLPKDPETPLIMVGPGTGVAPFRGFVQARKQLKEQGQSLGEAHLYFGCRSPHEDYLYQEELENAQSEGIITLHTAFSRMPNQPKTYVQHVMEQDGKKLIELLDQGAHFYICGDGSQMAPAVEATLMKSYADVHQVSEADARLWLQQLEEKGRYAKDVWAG

Kd [1]	Kd [2]	Kd [3]	Kd [4]	Substance
100 nM	140 nM	480 nM		CYP3A4 (from UniProt P08684)
			370 nM	CYP2B4 (from UniProt P00178)
